Measurements from publication PMC2716403 (Journal of molecular biology, 2009).
Like-named read-outs stand apart in the source and are kept apart here.

Tests used:
Test in all cases: ITC
[1] = biological target: T1, RanGDP (wild-type Ran, GDP-bound) (Rattus norvegicus, UniProt P62828 1-216)
[2] = biological target: T1, RanGDP (wild-type Ran, GDP-bound); remark: listed apart in the source
[3] = biological target: RanGDP (wild-type Ran, GDP-bound) (Rattus norvegicus, UniProt P62828 1-216); remark: listed apart in the source

## AGSSWQCDTCLLQNKVTDNKCIACQAAKL (domain or fragment) [Nup153-ZnF1]
[1]
  Kd: 6 µM

## GTWDCDTCLVQNKPEAVKCVACETPKPG (domain or fragment) [Nup153-ZnF2]
[2]
  Kd: 49 µM

## VGSWECPVCCVSNKAEDSRCVSCTSEKP (domain or fragment) [Nup153-ZnF3]
[1]
  Kd: 7 µM

## GSWDCEVCLVQNKADSTKCIACESAKPGTKSEFKGFGT (domain or fragment) [Nup153-ZnF4]
[2]
  Kd: 47 µM

B1: Nup358-ZnF12 (domain or fragment)
chain: KEGSWWHCNSCSLKNASTAKKCVSCQNLNPSNKELVGPPLAETVFTPKTSPENVQDRFALVTPKKEGHWDCSICLVRNEPTVSRCIACQNTKSA
[2]
  Kd: 15 µM

## GPLGSGSWQCEVCLVQNKADSTKCIACESAKPGTKSEFKGFGT (domain or fragment) [Nup153-ZnF4D8Q]
[3]
  Kd: 3 µM
